In the supplement of paper PMC10266784:

B1: library; numbered along this chain (parent)
chain: MAAAAAAAAEQQSSNGPVKKSMREKAVERRSVNKEHNSNFKAGYIPIDEDRLHKTGLRGRKGNLAICVIILLFILAVINLIITLVIWAVIRIGPNGCDSMEFHESGLLRFKQVSDMGVIHPLYKSTVGGRRNENLVITGNNQPIVFQQGTTKLSVENNKTSITSDIGMQFFDPRTQNILFSTDYETHEFHLPSGVKSLNVQKASTERITSNATSDLNIKVDGRAIVRGNEGVFIMGKTIEFHMGGNMELKAENSIILNGSVMVSTTRLPSSSSGDQLGSGDWVRYKLCMCADGTLFKVQVTSQNMGCQISDNPCGNTH

Variants of: B1
Assay: SGCB cell-surface expression functional score (HA stain, bin4 vs bin1, normalised to synonymous) (log10 ratio); higher = more cell-surface SGCB (functional)
Outline: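 The functional score is a log ratio of variant frequency in the highest versus the lowest intensity bin, expressed as a median over codons and duplicate transductions. Codon-saturation libraries of HA-tagged, YFP-fused human beta-sarcoglycan were transduced by lentivirus at MOI <0.1 into HEK293 cells stably expressing alpha-, gamma- and delta-sarcoglycan, and the cells were stained on ice with Alexa Fluor 647 anti-HA, fixed and sorted into four 5% intensity bins before amplicon sequencing. Synonymous variants were scaled to mean 0, SD 0.5 within each section.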

In order of rising “SGCB cell-surface expression functional score (log10)” value:
1. MAAAAAAAAEQQSSNGPVKKSMREKAVERRSVNKEHNSNFKAGYIPIDEDRLHKTGLRGRKGNLAICVIILLFILAVINLIITLVIWAVIRIGPNGCDSMEFHFSGLLRFKQVSDMGVIHPLYKSTVGGRRNENLVITGNNQPIVFQQGTTKLSVENNKTSITSDIGMQFFDPRTQNILFSTDYETHEFHLPSGVKSLNVQKASTERITSNATSDLNIKVDGRAIVRGNEGVFIMGKTIEFHMGGNMELKAENSIILNGSVMVSTTRLPSSSSGDQLGSGDWVRYKLCMCADGTLFKVQVTSQNMGCQISDNPCGNTH [E104F]  -0.24
2. MAAAAAAAAEQQSSNGPVKKSMREKAVERRSVNKEHNSNFKAGYIPIDEDRLHKTGLRGRKGNLAICVIILLFILAVINLIITLVIWAVIRIGPNGCDSMEFHLSGLLRFKQVSDMGVIHPLYKSTVGGRRNENLVITGNNQPIVFQQGTTKLSVENNKTSITSDIGMQFFDPRTQNILFSTDYETHEFHLPSGVKSLNVQKASTERITSNATSDLNIKVDGRAIVRGNEGVFIMGKTIEFHMGGNMELKAENSIILNGSVMVSTTRLPSSSSGDQLGSGDWVRYKLCMCADGTLFKVQVTSQNMGCQISDNPCGNTH [E104L]  -0.18
3. MAAAAAAAAEQQSSNGPVKKSMREKAVERRSVNKEHNSNFKAGYIPIDEDRLHKTGLRGRKGNLAICVIILLFILAVINLIITLVIWAVIRIGPNGCDSMEFHNSGLLRFKQVSDMGVIHPLYKSTVGGRRNENLVITGNNQPIVFQQGTTKLSVENNKTSITSDIGMQFFDPRTQNILFSTDYETHEFHLPSGVKSLNVQKASTERITSNATSDLNIKVDGRAIVRGNEGVFIMGKTIEFHMGGNMELKAENSIILNGSVMVSTTRLPSSSSGDQLGSGDWVRYKLCMCADGTLFKVQVTSQNMGCQISDNPCGNTH [E104N]  -0.11
4. MAAAAAAAAEQQSSNGPVKKSMREKAVERRSVNKEHNSNFKAGYIPIDEDRLHKTGLRGRKGNLAICVIILLFILAVINLIITLVIWAVIRIGPNGCDSMEFHGSGLLRFKQVSDMGVIHPLYKSTVGGRRNENLVITGNNQPIVFQQGTTKLSVENNKTSITSDIGMQFFDPRTQNILFSTDYETHEFHLPSGVKSLNVQKASTERITSNATSDLNIKVDGRAIVRGNEGVFIMGKTIEFHMGGNMELKAENSIILNGSVMVSTTRLPSSSSGDQLGSGDWVRYKLCMCADGTLFKVQVTSQNMGCQISDNPCGNTH [E104G]  -0.1
5. MAAAAAAAAEQQSSNGPVKKSMREKAVERRSVNKEHNSNFKAGYIPIDEDRLHKTGLRGRKGNLAICVIILLFILAVINLIITLVIWAVIRIGPNGCDSMEFHISGLLRFKQVSDMGVIHPLYKSTVGGRRNENLVITGNNQPIVFQQGTTKLSVENNKTSITSDIGMQFFDPRTQNILFSTDYETHEFHLPSGVKSLNVQKASTERITSNATSDLNIKVDGRAIVRGNEGVFIMGKTIEFHMGGNMELKAENSIILNGSVMVSTTRLPSSSSGDQLGSGDWVRYKLCMCADGTLFKVQVTSQNMGCQISDNPCGNTH [E104I]  0.01
6. MAAAAAAAAEQQSSNGPVKKSMREKAVERRSVNKEHNSNFKAGYIPIDEDRLHKTGLRGRKGNLAICVIILLFILAVINLIITLVIWAVIRIGPNGCDSMEFHMSGLLRFKQVSDMGVIHPLYKSTVGGRRNENLVITGNNQPIVFQQGTTKLSVENNKTSITSDIGMQFFDPRTQNILFSTDYETHEFHLPSGVKSLNVQKASTERITSNATSDLNIKVDGRAIVRGNEGVFIMGKTIEFHMGGNMELKAENSIILNGSVMVSTTRLPSSSSGDQLGSGDWVRYKLCMCADGTLFKVQVTSQNMGCQISDNPCGNTH [E104M]  0.11
7. MAAAAAAAAEQQSSNGPVKKSMREKAVERRSVNKEHNSNFKAGYIPIDEDRLHKTGLRGRKGNLAICVIILLFILAVINLIITLVIWAVIRIGPNGCDSMEFHKSGLLRFKQVSDMGVIHPLYKSTVGGRRNENLVITGNNQPIVFQQGTTKLSVENNKTSITSDIGMQFFDPRTQNILFSTDYETHEFHLPSGVKSLNVQKASTERITSNATSDLNIKVDGRAIVRGNEGVFIMGKTIEFHMGGNMELKAENSIILNGSVMVSTTRLPSSSSGDQLGSGDWVRYKLCMCADGTLFKVQVTSQNMGCQISDNPCGNTH [E104K]  0.13
8. MAAAAAAAAEQQSSNGPVKKSMREKAVERRSVNKEHNSNFKAGYIPIDEDRLHKTGLRGRKGNLAICVIILLFILAVINLIITLVIWAVIRIGPNGCDSMEFHQSGLLRFKQVSDMGVIHPLYKSTVGGRRNENLVITGNNQPIVFQQGTTKLSVENNKTSITSDIGMQFFDPRTQNILFSTDYETHEFHLPSGVKSLNVQKASTERITSNATSDLNIKVDGRAIVRGNEGVFIMGKTIEFHMGGNMELKAENSIILNGSVMVSTTRLPSSSSGDQLGSGDWVRYKLCMCADGTLFKVQVTSQNMGCQISDNPCGNTH [E104Q]  0.18
9. MAAAAAAAAEQQSSNGPVKKSMREKAVERRSVNKEHNSNFKAGYIPIDEDRLHKTGLRGRKGNLAICVIILLFILAVINLIITLVIWAVIRIGPNGCDSMEFHHSGLLRFKQVSDMGVIHPLYKSTVGGRRNENLVITGNNQPIVFQQGTTKLSVENNKTSITSDIGMQFFDPRTQNILFSTDYETHEFHLPSGVKSLNVQKASTERITSNATSDLNIKVDGRAIVRGNEGVFIMGKTIEFHMGGNMELKAENSIILNGSVMVSTTRLPSSSSGDQLGSGDWVRYKLCMCADGTLFKVQVTSQNMGCQISDNPCGNTH [E104H]  0.28
10. MAAAAAAAAEQQSSNGPVKKSMREKAVERRSVNKEHNSNFKAGYIPIDEDRLHKTGLRGRKGNLAICVIILLFILAVINLIITLVIWAVIRIGPNGCDSMEFHPSGLLRFKQVSDMGVIHPLYKSTVGGRRNENLVITGNNQPIVFQQGTTKLSVENNKTSITSDIGMQFFDPRTQNILFSTDYETHEFHLPSGVKSLNVQKASTERITSNATSDLNIKVDGRAIVRGNEGVFIMGKTIEFHMGGNMELKAENSIILNGSVMVSTTRLPSSSSGDQLGSGDWVRYKLCMCADGTLFKVQVTSQNMGCQISDNPCGNTH [E104P]  0.47
